± gives the half width of the 95% confidence interval.
Test: folding stability dG unfold from chymotrypsin proteolysis; higher = more stable
Summary of the method: (§1)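 Unfolding free energy was derived, per protease or combined, against a sequence-predicted unfolded-state K50 and a shared folded-state K50, starting from K50 inferred by Bayesian fitting of sequencing counts. Digestion with trypsin and chymotrypsin was carried out on designed mini-proteins under 80 residues without cysteine in a PA-tagged cDNA display construct. Only designs with AlphaFold2 dimer inter-PAE above 15 were kept.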

In order of falling “folding stability dG unfold” value:
1. SAGFVMIKIELENPGNGKERELSIIIPYKSQEDARHIAEEIARELAKNGWKIKKIEVMVMPIPPPPDDPSAG [r5_660_TrROS]  5.29 ± 0.16 kcal/mol
2. SAGGSAGGSAGGKIKDAEIVSVEYDPETGVLYMEVKLEDGSTYRIRFDLKTNKLTIEPVSAGGSAGGSAGGS [r10_674_TrROS_Hall]  4.91 ± 0.2 kcal/mol
3. SAGAMVTHTITVKIDPSELDKLEEILEKIKNSGPVKAIEPVSFEPGTGVYTVKVTADPATIKLVEEALKSAG [r5_193_JUSTAS]  4.14 ± 0.062 kcal/mol
4. SAGGSAGGSMTIEEIKKLAEELGIEKVEIEKVKDGYYKIKIYNKKTGKKIEIIIKVNKDGKIVSAGGSAGGS [r12_170_TrROS_Hall]  3.9 ± 0.091 kcal/mol
5. SAGGSAMLDNLVPVGSVTVVERFPDGLLRVVNYTFWRDPESGAWYVSADVEVFPLLPEDPVLLEAGSAGGSA [r15_207_TrMRF]  3.88 ± 0.048 kcal/mol
6. SAGGSAKKLPAEAVAKELAERLSKELGLTIKRVEVEVIDPEKGLVRVTVVYETPYGYLKREILLPVSAGGSA [r15_32_TrMRF]  3.825 ± 0.033 kcal/mol
7. SAGGSAELAKALGLKVTVEVEEEDGYLTVKVTVTGPNGEEKTFTMVIKIEPLPPPKKVKKGDKKNKSAGGSA [r15_843_TrROS_Hall]  3.74 ± 0.13 kcal/mol
8. SAGGSAEEAEELARRLAAELQAETGLEVTVEVRYDEETDTVVIRMTVRDRATGEERTLELTLRLPDSAGGSA [r15_464_TrROS_Hall]  3.72 ± 0.052 kcal/mol
9. SAGMELKVEIVAPKEVLLEKVKELEATIKKAFPKVKVEVEAKIEPLEGDEWKATVVIKIEPLPEDEPAESAG [r5_936_TrMRF]  3.59 ± 0.18 kcal/mol
10. SAGGSAGGEIRERLRELIEQLPEEELVVRIRRNGEEVELTFRTREDLEAALEANPEAEIEIVRRSAGGSAGG [r6_421_TrROS_Hall]  3.35 ± 0.037 kcal/mol
11. SAGGSAGGSAFTIHDLKLNKVEVHPDGTVTYHLEVTLPSGEKLKVVVLVDPRKPSLATFYFSSAGGSAGGSA [r18_97_TrMRF]  3.31 ± 0.057 kcal/mol
12. SAGGLRVHPNSLYIWIPPGGNFDDFVKEIAQELQKKGKPMEIKVEPFPDGWYWIRIKVDGKDIEIWMSAGGS [r16_771_TrROS]  3.24 ± 0.039 kcal/mol
13. SAGGSISIPVYSPEDVIEAIEFIERYLREKGFPENEEATRIIVERLEDGRYRVIIEYPTRTIIIDDSAGGSA [r2_120_TrMRF]  3.09 ± 0.033 kcal/mol
14. SAGGSAGGSAGIDPPDIKLRVESELGPGPVRRLLVYLEGPGELVLVDVPADGSVSVSIFPSAGGSAGGSAGG [r11_55_TrMRF]  2.9 ± 0.28 kcal/mol
15. SAGGSAGGSAGGPEEPEKLTLRVTLTFYNPETQEPVEEVEVEITLTAEDLKEGKITITPSAGGSAGGSAGGS [r10_672_TrROS_Hall]  2.85 ± 0.07 kcal/mol
16. SAGGSAGGSAGGFTIKIETRPMPMFSKDGKPLAEMNMYRIKIEVPDMPPGLADKLIDLIQSAGGSAGGSAGG [r7_450_TrROS]  2.67 ± 0.097 kcal/mol
17. SAGGSAGGKEFKIVKVEIEEREDGRLKIHITVEPGATPEEVKKALEELGFEVEEVEVVEVEEEESAGGSAGG [r6_543_TrROS_Hall]  2.368 ± 0.023 kcal/mol
18. SAAKITEVDVEVGGDTITTTFRLEIDGKPYLAVTRLEPLTDPDGNPRFIAVTELYDEDGNLVATLPSDLSAG [r14_465_TrMRF]  2.325 ± 0.018 kcal/mol
19. SAGGIIIYPKDPDGKQRPIPPEVIRRIVDTIARRYGFEIKIDIEIEPTNDYWVITIPIEIEGLPPEQLSAGG [r13_790_TrROS]  2.23 ± 0.068 kcal/mol
20. SAGGSAGGSAGGMPLTLTSETVTVERDPTSNNVVTTTTTTYKLPNGTLVTVTTTTTSPTTSAGGSAGGSAGG [r7_267_JUSTAS]  2.21 ± 0.034 kcal/mol
21. MEVKIKVEIVKVEEVEVKKKKDGKEEKFIRIEIKIEVEAKPGLSEEEIKKLAEELAKKLKELGLEVEVKKES [r1_305_TrROS_Hall]  2.15 ± 0.13 kcal/mol
22. SAGGSAGGSAGGSMTLKVTLTPPSGEVVEFEITEEELDKLKEELPEDWSISTEPIPELESAGGSAGGSAGGS [r4_63_JUSTAS]  2.132 ± 0.016 kcal/mol
23. MEITITETENGYRVEVKIEITVIDPKTGEPVPLEIPVEAFVPASDPDPEKAAKEAAEKALEEVLKALPEGLS [r1_414_JUSTAS]  1.88 ± 0.091 kcal/mol
24. SAGGSAGGSAAPTNPVEITLKRPDGTPVKATITFYPDGVKVTVEDGDTTTTSWLSPEEITLSAGGSAGGSAG [r3_373_JUSTAS]  1.722 ± 0.015 kcal/mol
25. SAGMPDVPPVPRTFRLEIEIEVPAEDPELARELAEEIREEIRRLGAVRTEVEIDPEPGRVRVRVEFVEGSAG [r5_512_TrMRF]  1.56 ± 0.051 kcal/mol
26. SAGGSADYVFVRIEVRDPKNKQPMSIMIPVPPDMTPDEAIEEAEMIANTFKEKGLEITVEVEPMPPSAGGSA [r15_268_TrROS]  1.56 ± 0.13 kcal/mol
27. SAGGMVFKTKDGYLVRIEVFNKETGEKTEILVPEENIEELLKALESKPGVTEVKVEIYKLKDGKPEKLSAGG [r13_914_TrROS_Hall]  1.38 ± 0.09 kcal/mol
28. DDNQEYEYENPGGMKMRVEYNPSTGNMKVEMEPVPPVPPIPPIMIPLDLTPEQANRLINELQDLGIPIMVGS [r1_242_TrROS]  1.33 ± 0.086 kcal/mol
29. SAGGSAGGSGSVEFETDLKDPNIRKAIEEALKEGKKTAVIPFPDGAEGRIVEVEGDKVRVEISSAGGSAGGS [r12_334_TrMRF]  1.29 ± 0.099 kcal/mol
30. SAGGKVFTPEHLEELLKNVPADDPNATLTVTVEVPVVVLPTTDGDDNPLPAAAAPATVTLPITVLPASAGGS [r16_708_TrMRF]  1.2 ± 0.018 kcal/mol
31. SAKIVVKLPEKPKVAVIEFPPGMTKEEILKALEEVPGLSEEEREALKKKIEELEALAKNPELLKKLEEESAG [r14_732_TrROS_Hall]  1.19 ± 0.051 kcal/mol
32. SGMKSVTTPVSLTINTSPEEAEEFIEKLAKERGIEDVTVVKVTTDPATGTLTVEAELHTTIPPLPPPSSVSA [r9_918_JUSTAS]  1.17 ± 0.061 kcal/mol
33. SAGGSAGGSAGMEVILLEVDSEEEAEKLVKELSEKYGYPVKVEKDPENPKLVTLTIEKPKSAGGSAGGSAGG [r11_797_JUSTAS]  1.16 ± 0.039 kcal/mol
34. SAGGSAGGSAGGDEVLVFETETVELEVEVRTLNEDGEETTEKEKVTLTVTRVVRLPPGLLSAGGSAGGSAGG [r7_926_TrROS_Hall]  1.15 ± 0.24 kcal/mol
35. SMKVEIEEEVEGDRITLTIKFDDEEEAEKAIKELAKELGIPMKVLSRESEKLPGGEYKLTITGEVPPDLKSA [r9_102_JUSTAS]  1.1 ± 0.24 kcal/mol
36. SAGGSAGGSAGGLKDALENGYVMIDFEIYNPPNGEPIGEITIMVKVPKPEPDEDGNWQLVSAGGSAGGSAGG [r7_959_TrROS]  0.941 ± 0.06 kcal/mol
37. SAGGSMAEPGPMNMTLSFDGIEKEFSVEITVRKRPDGTEVLELRLPDGVPLTLPAAEAAKIVDMSGSAGGSA [r2_297_JUSTAS]  0.879 ± 0.036 kcal/mol
38. SAGGSAGGQEEEAEALAKEVEAPAREALPGTEVTVTVTVTRREDGSLEVDVTIEGDFALPAALLSAGGSAGG [r6_999_JUSTAS]  0.636 ± 0.067 kcal/mol
39. SAGGVRYRNPLTGVEIPPDATEEERAAIARAVAKPVVLPVTVPVYVEEGDVVVPVERTFHVPLGPDGSAGGS [r16_387_TrMRF]  0.0948 ± 0.12 kcal/mol
40. SAGGSAGGSAGGMYFIRIKPPNGEELVILIPPGDEIKIKDADGRPWKITDVYPMPPEQFSAGGSAGGSAGGS [r10_422_TrROS]  -0.118 ± 0.73 kcal/mol
41. SAGGGSAWKVTAENLPADGYVKFPDGTTVPPGTELTVPLSAGYTDIRALDPEGNVVSVELVPLPEPKLSAGG [r13_441_JUSTAS]  -0.274 ± 0.29 kcal/mol
42. SAGGSAGGSAGGSDVKIEVERGPNGYYTVTIELNGKPKIIPFPPGRPPEDAKDEIKDLLSAGGSAGGSAGGS [r4_7_TrROS]  -0.279 ± 0.13 kcal/mol

Test: folding stability dG unfold from trypsin proteolysis; higher = more stable
Summary of the method: as §1

In order of rising “folding stability dG unfold” value:
1. SMKVEIEEEVEGDRITLTIKFDDEEEAEKAIKELAKELGIPMKVLSRESEKLPGGEYKLTITGEVPPDLKSA [r9_102_JUSTAS]  0.192 ± 0.083 kcal/mol
2. SAGGVRYRNPLTGVEIPPDATEEERAAIARAVAKPVVLPVTVPVYVEEGDVVVPVERTFHVPLGPDGSAGGS [r16_387_TrMRF]  0.22 ± 0.085 kcal/mol
3. SAGGSMAEPGPMNMTLSFDGIEKEFSVEITVRKRPDGTEVLELRLPDGVPLTLPAAEAAKIVDMSGSAGGSA [r2_297_JUSTAS]  0.549 ± 0.023 kcal/mol
4. SAGGSAGGSAGGSDVKIEVERGPNGYYTVTIELNGKPKIIPFPPGRPPEDAKDEIKDLLSAGGSAGGSAGGS [r4_7_TrROS]  0.554 ± 0.058 kcal/mol
5. SAGGSAGGQEEEAEALAKEVEAPAREALPGTEVTVTVTVTRREDGSLEVDVTIEGDFALPAALLSAGGSAGG [r6_999_JUSTAS]  0.813 ± 0.065 kcal/mol
6. SAGGSAGGSAGGDEVLVFETETVELEVEVRTLNEDGEETTEKEKVTLTVTRVVRLPPGLLSAGGSAGGSAGG [r7_926_TrROS_Hall]  0.827 ± 0.083 kcal/mol
7. SAGGMVFKTKDGYLVRIEVFNKETGEKTEILVPEENIEELLKALESKPGVTEVKVEIYKLKDGKPEKLSAGG [r13_914_TrROS_Hall]  0.862 ± 0.026 kcal/mol
8. DDNQEYEYENPGGMKMRVEYNPSTGNMKVEMEPVPPVPPIPPIMIPLDLTPEQANRLINELQDLGIPIMVGS [r1_242_TrROS]  0.906 ± 0.06 kcal/mol
9. SAGGSAGGSAGGLKDALENGYVMIDFEIYNPPNGEPIGEITIMVKVPKPEPDEDGNWQLVSAGGSAGGSAGG [r7_959_TrROS]  1.34 ± 0.086 kcal/mol
10. SAGMPDVPPVPRTFRLEIEIEVPAEDPELARELAEEIREEIRRLGAVRTEVEIDPEPGRVRVRVEFVEGSAG [r5_512_TrMRF]  1.36 ± 0.018 kcal/mol
11. SAGGIIIYPKDPDGKQRPIPPEVIRRIVDTIARRYGFEIKIDIEIEPTNDYWVITIPIEIEGLPPEQLSAGG [r13_790_TrROS]  1.87 ± 0.06 kcal/mol
12. SAGGSAGGKEFKIVKVEIEEREDGRLKIHITVEPGATPEEVKKALEELGFEVEEVEVVEVEEEESAGGSAGG [r6_543_TrROS_Hall]  1.93 ± 0.086 kcal/mol
13. SAGGLRVHPNSLYIWIPPGGNFDDFVKEIAQELQKKGKPMEIKVEPFPDGWYWIRIKVDGKDIEIWMSAGGS [r16_771_TrROS]  2.02 ± 0.065 kcal/mol
14. SAGGSAMLDNLVPVGSVTVVERFPDGLLRVVNYTFWRDPESGAWYVSADVEVFPLLPEDPVLLEAGSAGGSA [r15_207_TrMRF]  2.24 ± 0.11 kcal/mol
15. MEITITETENGYRVEVKIEITVIDPKTGEPVPLEIPVEAFVPASDPDPEKAAKEAAEKALEEVLKALPEGLS [r1_414_JUSTAS]  2.33 ± 0.21 kcal/mol
16. SAGGSAGGSAGGMPLTLTSETVTVERDPTSNNVVTTTTTTYKLPNGTLVTVTTTTTSPTTSAGGSAGGSAGG [r7_267_JUSTAS]  2.38 ± 0.1 kcal/mol
17. SAGGSAELAKALGLKVTVEVEEEDGYLTVKVTVTGPNGEEKTFTMVIKIEPLPPPKKVKKGDKKNKSAGGSA [r15_843_TrROS_Hall]  2.44 ± 0.26 kcal/mol
18. SAGGSAGGSAGIDPPDIKLRVESELGPGPVRRLLVYLEGPGELVLVDVPADGSVSVSIFPSAGGSAGGSAGG [r11_55_TrMRF]  2.85 ± 0.18 kcal/mol
19. SAGGSAEEAEELARRLAAELQAETGLEVTVEVRYDEETDTVVIRMTVRDRATGEERTLELTLRLPDSAGGSA [r15_464_TrROS_Hall]  3.04 ± 0.063 kcal/mol
20. SAGGSAGGSAGGKIKDAEIVSVEYDPETGVLYMEVKLEDGSTYRIRFDLKTNKLTIEPVSAGGSAGGSAGGS [r10_674_TrROS_Hall]  3.29 ± 0.36 kcal/mol
21. SAGMELKVEIVAPKEVLLEKVKELEATIKKAFPKVKVEVEAKIEPLEGDEWKATVVIKIEPLPEDEPAESAG [r5_936_TrMRF]  3.87 ± 0.27 kcal/mol
